Experimental data reported in the DeepSol protein solubility set.

Experiment: soluble on expression in E. coli; label from the status in PepcDB or PDB records

Sequence	soluble on expression in E. coli
MNPQRDCKEFKVETRTITEVQSEPIYPTGRCGPVLARIPVVISQSKVHIDIESRVCFDHSVFDIYSHSRNIYLTQCKLLNMGNKRYGKIYLNGYVSENIAYAAYCMKGREYGNKKSTSADMLYKTLKVPFECVAKIEYCTSPVFKTSNGFIPVALPDKENSPEDSYFSGERLFCELDEASICESNVERKKLFSRINAGEDSFDTLTEYLVLSITFTLLQWQQVRIPGYFPNNPHSQI	not soluble
MNQIDLNVTCRYAGVFHVEKNGRYSISRTEAADLCQAFNSTLPTMDQMKLALSKGFETCRYGFIEGNVVIPRIHPNAICAANHTGVYILVTSNTSHYDTYCFNASAPPEEDCTSVTDLPNSFDGPVTITIVNRDGTRYSKKGEYRTHQEDIDAS	soluble
MNQLQAEINAANAVFPVSDSTKIPKVSQKLFGLLGDGFFPQLHPKGLKIADNIAALFDQYNLKSIALKNFDLNLERKNDIVIQGKVCYSFSIK	not soluble
MNQNQNKKTKIVALSMMNSQTSGNPSRGTTKFESYTFDYWQYIDTLVYWGGSSGEGIIVTPSADVIDEAHSNGVPVLGTIFLPPKEYGGKVDWVKTMLKKDEQGQYPFASQMVKVAKTYGFEGWFINEETQGLNADDAANMKALIQQVKKEDSSLQIMWYDAMTKDGKVDWQNQLNDQNATFVQDKAADAMFLNFWWTQNNLADQKLLEKSNLYAKNHNIDPYNIYAGIDVQAKDVQTPVKWNLLEKGNQATQTSIGLYAASATYTNASNWDDFQNRESAFWVNQKADPRQVDHSVNESWTGLSKYVLEKSAISGNEFNTNFNLGNGYNYFKAGQKISEMDWNDRSLAGILPSYRWIIDNEGKNKISPSFDFANAYNGGNSLKFMAEHLDAGKSSNITLFASDLKIAMGAKFSVSMRSDQALKVSAILELANGQKVSIAGDKSLTENWSKLEHHHHHH	soluble
MNQQEFQLREITYQDIKDLLAIEREVYAGELPWTMSAFMAELGSKAPHLYLLAAINGKTVGFIGCRIQGTDAHITNVAVHTAYQGLGLGRSLIEETRIFAKKNRCETLSLEVRMSNVKAQRLYRKIGFVSQTVKKGYYDENNEDALEMIIDLKEE	not soluble
MNRFFILSGCSGGGKSTLLAELARRGFATVEEPGRRIVIEETRNGGTALPWIDMQAFARRAIAMALEDRRVTPKEGLVFFDRGLIDAASALHHISGDRFVNTLRDTHRYNSLVFLTPPWPEIYQSDDERKHGFDAAVEEYERLVRDYEGLGYDIVVLPKSAVAERADLILTRIGLEHHHHHH	not soluble
MNRIAFDAKRITSNATGLGNYSRFVVEALAAFHSEHRYYLCSPGKGNPALYSALQQREGIEWLLPEGRRMGGTFWRNFGVVPRLQKEGIDLFHGLSHELPLGIYGKGIATVVTIHDLIFIRYPHYYKPVDRLLYRLKYGHAARCADRVIAISEQTKRDVMEFFHVPADRIDVVYQGCSPAFGQATEEDESRARERYALPERYLLYVGSIETRKNLRLAVEALAHCRDRHIRLVAVGKRTPYCAEVQQCAERSGVADRLVMLHDVPFAFLPGIYRGAEVFVYPSRFEGFGIPIVEALASGVPVVAATGSCLEEAGGPSSLYTDPDDAEMMASMLDSILSDSSLREKMIADGRTYIERFSPEAVARSLMHVYDKVL	not soluble
MNRKKLAAYGQEFEDDDEEGSSVSKKPTQIHEEIATDEKGKRRFHGAFTGGFSAGYWNTVGSKQGWVPQVFSSSRNERGEQIKQRAEDFMDAEDLGEYGIGNRSIKQTAAFGEGAGQKRKMAWERDTTSISTITQMFEDVVKPVSNSIGVRMLRSMGWREGRGIGLANVKQKQKRGGESSEAQFDREQASKVAPAYEFSNEDALVKQLTPLTGTHGIGYQGLRKTTVLNESYGRTTLALKSGKKNSKGIKGQAFGVGAFEEEDESVYSNYDLSQFDFSLDVAGASEESNLKTQKLVTAFELQPKRLNPRKFYAPPRVPPNFRGDHRPIPMDISKLPQMMKNDVKHMNAEQRAKFLGEDRVNALEIGGKSSKKPTERRSRWDIKANEVEKRDNERGGGEAEEDRDRRQRNRIEFPDEPMRQARFKEFLHYIRRGLPYPQPTDLTVWEWEWEKKEFESKLTSDERGMLPEVQSRAQPLAKTAIAAPIHEMMASKFVKEAGGDLKVGTKDEDKLAAVKMEMFGEKTRQSFDWYPDNLLAKRFNVPHPYPGSDTVGVPALQKTDWKRKDRLADIGGVSATLGLPNTANEIEMRERLLKSRAQRGAEEKKRNQSDDDDEKEYDDKDSDEEEENEAEPNNQKVDKAPKSFFDFIFGDGDGADSDESNSEDEEAEEKERQEILKKREEDLKRRREIVEKKEEENRKRVEKELKELENRDLLRVSKQQEDDDIQIIDETSASSFGPALPPSSKPVLSKTEVLKLLEKNMKKKKKDKKEKEKKKKSKKSKKSKKEKKTKRKHSSSSADDSGDNSDGWEEKK	not soluble
MNRMSLAALLSCLPLVAWADNPVKLDTPVSGWRAGDGSAANYRQVVNYPASSVNVAADQATTARIRGAIESQPKDRPATLVVNGVSMPLKVDADGSFDRPFAFPSGSNSVEVRNAAGQSRRVQFYHGGGGGEVPAKLRVLLSWDSDNTDLDLHLVTPDGDHVWYGNRSLANGATLDVDVTTGYGPEIIATPTPQKGPYLVYVNYFGGGYGSSEDGAEQAAQDLTTARITLVTEEGTPNEKQETFLVPMRKPGELTLVKRFSYP	not soluble
MNRQELITEALKARDMAYAPYSKFQVGAALLTKDGKVYRGCNIENAAYSMCNCAERTALFKAVSEGDTEFQMLAVAADTPGPVSPCGACRQVISELCTKDVIVVLTNLQGQIKEMTVEELLPGAFSSEDLHDERKL	soluble
MNRSIDSIIAKKVSHDVGILIFQYLNDIEPLIQQSLTAAKLKDFYGLKGKYSKGRFVCPFHHGADNPTSLSMNDNKRCFHCNACGKSGTYLEFIMYMQNISGRNSYNDAKIFAANHFTKLNLGFNSIADFEQKLKDKILERYRKTNSLRYTDYYDIWLLPERYFSSKEQSQVRQYQEEQQTKPSLEVSLSNSTNKPGFILESLDLEMTIRHLKAQNIIVNGITDYDEAVQVAKNSKLIKDFTKNADKLNSVDKLTDYMSKKYNIDIDTALKYGLIFFDKSSQHQLYYSDFFMLNNRVLFPVRDHETGIIVGYQCRRTDLSAPRHYKYLNITDYQDNLITNENGTTYRDFVPFKVGNFLFNLYELKGKCINTLWITEGIADAIKLSSMGYDAVSLGQANLTDYQIYLIDKYFGKDVTLNLFFDNDDNKIGQNKSIAAAYRLWQFGFRNIRIINTFKEMGKDITDCSVKLHDDDMLRLFINHWEKQAYSFAPASNEDLSALLKTGLYSESEILFIDPRDVERIISFGEMLNKYLDFKNMTYQQLKLLKKLCSFKEDEIKILLSLSTKDFLDVQNTNEQSCHKEQL	not soluble
MNSCDFRVFLQEFGTTVHLSLPGSVSEKERLLLKLLMQGMSVTEISQYRNRSAKTISHQKKQLFEKLGIQSDITFWRDIFFQYNPEIISATGSNSHRYINDNHYHHIVTPEAISLALENHEFKPWIQPVFCAQTGVLTGCEVLVRWEHPQTGIIPPDQFIPLAESSGLIVIMTRQLMKQTADILMPVKHLLPDNFHIGINVSAGCFLAAGFEKECLNLVNKLGNDKIKLVLELTERNPIPVTPEARAIFDSLHQHNITFALDDFGTGYATYRYLQAFPVDFIKIDKSFVQMASVDEISGHIVDNIVELARKPGLSIVAEGVETQEQADLMIGKGVHFLQGYLYSPPVPGNKFISEWVMKAGG	soluble
MNSFYSQEELKKIGFLSVGKNVLISKKASIYNPGVISVGNNVRIDDFCILSGKVTIGSYSHIAAYTALYGGEVGIEMYDFANISSRTIVYAAIDDFSGNALMGPTIPNQYKNVKTGKVILKKHVIIGAHSIIFPNVVIGEGVAVGAMSMVKESLDDWYIYVGVPVRKIKA	soluble
MNSNKELMQRRSQAIPRGVGQIHPIFADRAENCRVWDVEGREYLDFAGGIAVLNTGHLHPKVVAAVEAQLKKLSHTCFQVLAYEPYLELCEIMNQKVPGDFAKKTLLVTTGSEAVENAVKIARAATKRSGTIAFSGAYHGRTHYTLALTGKVNPYSAGMGLMPGHVYRALYPCPLHGISEDDAIASIHRIFKNDAAPEDIAAIVIEPVQGEGGFYASSPAFMQRLRALCDEHGIMLIADEAQSGAGRTGTLFAMEQMGVAPDLTTFAKSIAGGFPLAGVTGRAEVMDAVAPGGLGGTYAGNPIACVAALEVLKVFEQENLLQKANDLGQKLKDGLLAIAEKHPEIGDVRGLGAMIAIELFEDGDHNKPDAKLTAEIVARARDKGLILLSCGPYYNVLRILVPLTIEDAQIRQGLEIISQCFDEAKQ	soluble
MNSPPINEFIQAVVYDHSIATGLKACKTDQDIVDYAASKGFIFSSSEWQLYLALDRKTLSDSELAKILVVPVEHWSWAFRKVALWRAMLMDGV	not soluble
MNSRQQTILQMVIDQGQVSVTDLAKATGVSEVTIRQDLNTLEKLSYLRRAHGFAVSLDSDDVETRMMSNYTLKRELAEFAASLVQPGETIFIENGSSNALLARTLGEQKKNVTIITVSSYIAHLLKDAPCEVILLGGVYQKKSESMVGPLTRQCIQQVHFSKAFIGIDGWQPETGFTGRDMMRTDVVNAVLEKECEAIVLTDSSKFGAVHSYSIGPVERFNRVITDSKIRASDLMHLEHSKLTIHVVDI	not soluble
MNTDELEHRRFDDLFSLVADPGFLLVAWDLVRGNKGASAAGVDGSTASSIALWVGVEKFLDMLRSQIKDRSFQPMPVRERMIPKAGGKLRRLGIATITDRVVQASLKLARFGEAAPGKRTGRKTGTAPRADFTPAIGCAFRYSPVLEHHHHHH	not soluble
MNTDHERWRTEYAGGTAVAYDDKVVLQGDSARLAGLLQDGGGRAHIYFDGASRGNPGPAAIGWVIVTDDGIVAEGSERIGRATNNQAEYEALIEALAAAADYAFDEAVVKGDSQLIVKQVRGEWDTNDPTLREKRVRVRKLLEEFSEWSLDHVPREINDRADDLANEALDGLEHHHHHH	soluble
MNTHHHIVISIGSNYAAETNIPAAMRLLRDSYPTIRFSKPIENAPIDFPYPSGLFTNLTAHFYSSENREEVGRKLKGIELQLGRTYTKPFDGRVAIDLDLIVWNNTILKNVDYSRPYIQSGLQELRINIQTQLNMTKESRSETFFHNKPNNWNCAQAVQKGFQDLTGMTDEAIEEEYRSKGGGRAEGGLCGALYSANRILESKGLQPVSQEFQAHAGGITCRELKGELKFPCNNCVRLAEELVEQRLSESQTID	not soluble
MNTINRNVYPVSGLSTQSVNPDSDGIQPPDVKSGHNSQLIDFSSPQQVNGLQSSLSLSGSRPQVPATRAASDASENPVELLLNKLVEAIRNILKDLLSLFKGDQQQDQAPPPAQTQREQAPSFSQLSQTPSSASPSSPSPSAAPAPAPTPTPTEKPFVVQNDHPADKPVTVQKNTAPTPPDPVQTQDKTSVTAPPKPVAATPAAHPRATTPVTEKPDTEEKVAKPAPRAAHGQGADMSGMIGFAKEANTTGGNNGEVVTVNTVADLKKYMEDDTARTVKLGANLSADSKVSINFGANKTLLGTDKGNSLHNIYLASGKTASNDIFQNLNFTHDSRYRENGDMQMFISSGQKYWIDHITATGTKDQNPKGLDKLLYVGGKADNVSLTNSRFQNNEYGVILGQPDDSADAKAEYKGYPRMTIANNVFSDLDVRAPGLMRHGQFDVFNNSINDFHLGFTATGDATILSQANYFAKGVDVSNKASNSGVLDDYGDAHFKDIGSNVSFTQKSPVTAWTPSYNRDIKTAEAARAYDLANAGAEAVR	not soluble
MNTMVKLPDSRWPGWRRRLYWWMHEAVEAEEVISLDLETTSLDPRRADILSIGAVLVRRGKLVMGERLELYVEPPPSLDAESIRIHKLRRADLEGQLQLEQALRQVLAFIGDRPLLGYYLSFDVAVLNRHLRQLLDRQLHNPSIEISSLYHRKVSRHFPDAHIDLRFDTLARALDVPVSGRHTALGDAQAVALMFMRLLKGPAPKVIH	not soluble
